Data from patent publication US11702475B2, “Cysteine engineered fibronectin type III domain binding molecules” (Janssen Biotech, Inc., priority 2013, dated 2023).
Substitutions are numbered along the chain they refer to. Names may count otherwise. “And” between values parts separate entries of the source, which are not always exact repeats. Equal values may be shown once. Read-outs that look alike come from different tables or passages of the source.

B1: V9C (conjugate)
chain: LPAPKNLVCSEVTEDSARLSWDDPWAFYESFLIQYQESEKVGEAIVLTVPGSERSYDLTGLKPGTEYTVSIYGVHNVYKDTNMRGLPLSAIFTT
modifications: left off: small tags and cut ends
B2: P63C (conjugate)
chain: B1 chain with C9V, P63C
modifications: left off: small tags and cut ends
B3: G51C (conjugate)
chain: B1 chain with C9V, G51C
modifications: left off: small tags and cut ends
B4: V12C (conjugate)
chain: B1 chain with C9V, V12C
modifications: left off: small tags and cut ends
B5: E39C (conjugate)
chain: B1 chain with C9V, E39C
modifications: left off: small tags and cut ends
B6: T13C (conjugate)
chain: B1 chain with C9V, T13C
modifications: left off: small tags and cut ends
B7: G42C (conjugate)
chain: B1 chain with C9V, G42C
modifications: left off: small tags and cut ends
B8: E29C (conjugate)
chain: B1 chain with C9V, E29C
modifications: left off: small tags and cut ends
B9: P50C (conjugate)
chain: B1 chain with C9V, P50C
modifications: left off: small tags and cut ends
B10: V49C (conjugate)
chain: B1 chain with C9V, V49C
modifications: left off: small tags and cut ends
B11: R18C (conjugate)
chain: B1 chain with C9V, R18C
modifications: left off: small tags and cut ends
B12: WT: Tencon (SEQ ID NO: 265) cysteine variant conjugated to VC-MMAF as a negative control (conjugate)
chain: LPAPKNLVVSEVTEDSLRLSWTAPDAAFDSFLIQYQESEKVGEAINLTVPGSERSYDLTGLKPGTEYTVSIYGVKGGHRSNPLSAEFTTGGHHHHHHC
modifications: VC-MMAF conjugated via cysteine; Tencon FN3 scaffold
B13: N6C: cysteine variant of P54AR4-83v2 (printed SEQ ID NOS: 210 and 248); NEM and VC-MMAF conjugates (conjugate)
chain: MLPAPKCLVVSEVTEDSARLSWDDPWAFYESFLIQYQESEKVGEAIVLTVPGSERSYDLTGLKPGTEYTVSIYGVHNVYKDTNMRGLPLSAIFTT
modifications: NEM or vcMMAF conjugate; EGFR binding FN3 domain
notes: NEM and VC-MMAF conjugates
B14: V8C: cysteine variant of P54AR4-83v2 (SEQ ID NOS: 189 and 227); NEM and VC-MMAF conjugates (conjugate)
chain: B13 chain with C7N, V9C
modifications: NEM or vcMMAF conjugate; EGFR binding FN3 domain
notes: NEM and VC-MMAF conjugates
B15: T93C: cysteine variant of P54AR4-83v2 (SEQ ID NOS: 216 and 254); NEM and VC-MMAF conjugates (conjugate)
chain: B13 chain with C7N, T94C
modifications: NEM or vcMMAF conjugate; EGFR binding FN3 domain
notes: NEM and VC-MMAF conjugates
B16: E53C: cysteine variant of P54AR4-83v2 (SEQ ID NOS: 204 and 242); NEM and VC-MMAF conjugates (conjugate)
chain: B13 chain with C7N, E54C
modifications: NEM or vcMMAF conjugate; EGFR binding FN3 domain
notes: NEM and VC-MMAF conjugates
B17: S10C: cysteine variant of P54AR4-83v2 (SEQ ID NOS: 190 and 228); NEM and VC-MMAF conjugates (conjugate)
chain: B13 chain with C7N, S11C
modifications: NEM or vcMMAF conjugate; EGFR binding FN3 domain
notes: NEM and VC-MMAF conjugates
B18: 83v2His6-cys: P54AR4-83v2 parent with C-terminal cysteine (SEQ ID NOs: 217 and 255); NEM and vcMMAF conjugates (conjugate)
chain: MLPAPKNLVVSEVTEDSARLSWDDPWAFYESFLIQYQESEKVGEAIVLTVPGSERSYDLTGLKPGTEYTVSIYGVHNVYKDTNMRGLPLSAIFTTGGHHHHHHC
modifications: His6 tag, C-terminal Cys; NEM or vcMMAF conjugate; EGFR binding FN3 domain
notes: NEM and vcMMAF conjugates

Columns and labels:
[1] = Thermal stability of cysteine-NEM conjugates by DSC; type: physicochemical; settings: for First Scan Tm: DSC 25-100 °C, 1 °C per minute; for Second Scan Tm: second identical scan
Description: The thermal stability of cysteine-NEM conjugates was assessed by differential scanning calorimetry (DSC). The only the conjugates tested were those determined to express at high levels, conjugate efficiently, and retain EGFR binding. Additionally, cysteine variants within the BC and FG loops were excluded. Stability data was generated by heating a 400 μL aliquot of the variant from 25° C. to 100° C. at a scan rate of 1° C. per minute in a VP-DSC instrument (MicroCal). A second identical scan was completed on the sample in order to assess the reversibility of thermal folding/unfolding. Data was fitted to a 2-state unfolding model in order to calculate the melting temperature (Table 10).

[2] = Analytical size exclusion chromatography (percent monomer); type: physicochemical; settings: NEM-conjugated cysteine variants; SEC, Abs280 monomer region 5.5-6 minutes vs oligomer region 4-5.3 minutes
Description: Size exclusion chromatography was used to determine the aggregation state of the FN3 domains binding EGFR. Aliquots (10 μL) of each purified FN3 domain were injected onto a Superdex 75 5/150 column (GE Healthcare) at a flow rate of 0.3 mL/min in a mobile phase of PBS pH 7.4. Elution from the column was monitored by absorbance at 280 nm.
The percent monomer for each protein was determined by integrating the Abs280 signal and comparing the peak in the monomer region (5.5-6 minutes) to the peaks in the oligomer region (4-5.3 minutes).

[3] = test system: EGFR-overexpressing human tumor cell line H1573; experiment: Cytotoxicity assay in H1573 cells; type: cell-based; settings: for potency relative to the parent conjugate (in words): VC-MMAF conjugates
Description: Cell killing was assessed by measuring viability of the EGFR-overexpressing human tumor cell line H1573 following exposure to the cysteine variant-cytotoxin conjugates. Cells were plated in black-well, clear bottomed, tissue culture-treated plates (Falcon 353219) at 7000/well in 100 μL/well of phenol red free RPMI media (Gibco 11835-030) with 5% fetal bovine serum (Gibco). Cells were allowed to attach overnight at 37° C. in a humidified 5% CO2 atmosphere. Medium was aspirated from 96-well plate and cells were treated with 50 uL of fresh media and 50 uL of 2× inhibitor made up in fresh media. Cell viability was determined by an endpoint assay with Cell TiterGlo (Promega) at 70 hours. IC50 values were determined by fitting data to the equation for a sigmoidal dose response with variable slope using GraphPad Prism 5 (GraphPad Software). Table 11 reports IC50 values obtained from analysis of the CellTiter Glo data.
Conjugates consisting of ECB147 cysteine variants, 83v2-cys, or Tencon-cys linked to a cytotoxic tubulin inhibitor from the auristatin family (FIG. 2) were tested for target-dependent cytotoxicity in cancer cells. The inhibitor was linked to the cysteine-containing protein via a non-cleavable PEG4 linker or an enzyme-cleavable valine-citrulline or valine-lysine linker. Cell killing was assessed by measuring viability of the EGFR-overexpressing human tumor cell lines H1573 and A431 as well as the EGFR-negative tumor cell line MDA-MB-435 following exposure to the protein-cytotoxin conjugates using the procedure described in Example 4.

[4] = cysteine variants conjugated to VC-MMAF, Cell TiterGlo at 70 hours, read-out: IC50

| Molecule | First Scan Tm [1] [°C] | Second Scan Tm [1] [°C] | Percent monomer [2] | IC50 [3, 4] | potency relative to the parent conjugate (in words) [3] | IC50 ([3]; vcMMAF conjugate, read-out: average IC50 of two replicates) [nM] |
| --- | --- | --- | --- | --- | --- | --- |
| B1 | 46 | 46 | double peak |  |  |  |
| B2 | 60 | 62 | 92% |  |  |  |
| B3 | 61 | 61 | 96% |  |  |  |
| B4 | 58 | 58 | 66% |  |  |  |
| B5 | 67 | 69 | 100% |  |  |  |
| B6 | 63 | 63 | 82% |  |  |  |
| B7 | 65 | 67 | 87% |  |  |  |
| B8 | 63 | 66 | 85% |  |  |  |
| B9 | 63 | 65 | 100% |  |  |  |
| B10 | 54 | 55 | 88% |  |  |  |
| B11 | 62 | 62 | 93% |  |  |  |
| B12 |  |  |  | 146 nM and 166 nM |  |  |
| B13 | 71 | 70 | 94% | 0.16 nM | over two times more potent than the parent |  |
| B14 | 69 | 69 | 91% | 0.35 nM |  |  |
| B15 | 69 | 69 | 100% | 0.2 nM | over two times more potent than the parent |  |
| B16 | 76 | 75 | 97% | 0.09 nM | over two times more potent than the parent |  |
| B17 | 68 | 68 | 80% | 0.43 nM |  |  |
| B18 | 71 | 71 | 97% | 0.61 nM and 0.79 nM |  | 0.7 |
